These are literature values, as cited in patent publication US6964771B1, “Method for stably incorporating substances within dry, foamed glass matrices” (Elan Drug Delivery Limited, priority 1995, dated 2005).

For the data set the following is noted: as delivered, dosage of 300 μg.

B1: Neupogen®: biopharmaceutical delivered at a dosage of 300 μg (protein, chains of the INN, looked up)
chain: MTPLGPASSLPQSFLLKCLEQVRKIQGDGAALQEKLCATYKLCHPEELVLLGHSLGIPWAPLSSCPSQALQLAGCLSQLHSGLFLYQGLLQALEGISPELGPTLDTLQLDVADFATTIWQQMEELGMAPALQPTQGAMPAFASAFQRRAGGVLVASHLQSFLEVSYRVLRHLAQP
B1: the specific activity is recorded as 1±0.6×10^8 U/mg.
